# Measured values reported in the supplement of paper PMC11246515.
# ± gives the standard deviation of the averaged measurements.
# Assay: total protein half-life in vivo (active degradation + dilution); higher = more stable protein
# [1] = E. coli NCM3722 delta-clpP delta-lon delta-hslV, growth: N-lim chemostat, doubling time 6 h
# [2] = E. coli NCM3722 delta-clpP, growth: N-lim chemostat, doubling time 6 h
# [3] = E. coli NCM3722 delta-lon, growth: N-lim chemostat, doubling time 6 h
# [4] = E. coli NCM3722 delta-smpB, growth: N-lim chemostat, doubling time 6 h
# [5] = wild type E. coli NCM3722, growth: C-lim chemostat, doubling time 3 h
# [6] = wild type E. coli NCM3722, growth: C-lim chemostat, doubling time 6 h
# [7] = wild type E. coli NCM3722, growth: C-lim chemostat, doubling time 12 h
# [8] = wild type E. coli NCM3722, growth: N-lim chemostat, doubling time 6 h
# [9] = wild type E. coli NCM3722, growth: N-lim chemostat, doubling time 12 h
# [10] = wild type E. coli NCM3722, growth: P-lim chemostat, doubling time 6 h
# [11] = wild type E. coli NCM3722, growth: P-lim chemostat, doubling time 12 h
# [12] = E. coli NCM3722 delta-hslV, growth: N-lim chemostat, doubling time 6 h
Sequence,total protein half-life in vivo [1],total protein half-life in vivo [2],total protein half-life in vivo [3],total protein half-life in vivo [4],total protein half-life in vivo [5],total protein half-life in vivo [6],total protein half-life in vivo [7],total protein half-life in vivo [8],total protein half-life in vivo [9],total protein half-life in vivo [10],total protein half-life in vivo [11],total protein half-life in vivo [12]
MKIVIAPDSYKESLSASEVAQAIEKGFREIFPDAQYVSVPVADGGEGTVEAMIAATQGAERHAWVTGPLGEKVNASWGISGDGKTAFIEMAAASGLELVPAEKRDPLVTTSRGTGELILQALESGATNIIIGIGGSATNDGGAGMVQALGAKLCDANGNEIGFGGGSLNTLNDIDISGLDPRLKDCVIRVACDVTNPLVGDNGASRIFGPQKGASEAMIVELDNNLSHYAEVIKKALHVDVKDVPGAGAAGGMGAALMAFLGAELKSGIEIVTTALNLEEHIHDCTLVITGEGRIDSQSIHGKVPIGVANVAKKYHKPVIGIAGSLTDDVGVVHQHGIDAVFSVLTSIGTLDEAFRGAYDNICRASRNIAATLAIGMRNAG,3.21 ± 0.32 h,2.26 ± 0.32 h,2.05 h,3.17 ± 1.2 h,3.01 ± 0.68 h,5.02 ± 1.3 h,9.27 ± 0.37 h,2.08 ± 0.076 h,10.9 h,5.89 ± 0.76 h,10.4 ± 2.5 h,–
MADLDDIKDGKDFRTDQPQKNIPFTLKGCGALDWGMQSRLSRIFNPKTGKTVMLAFDHGYFQGPTTGLERIDINIAPLFEHADVLMCTRGILRSVVPPATNRPVVLRASGANSILAELSNEAVALSMDDAVRLNSCAVAAQVYIGSEYEHQSIKNIIQLVDAGMKVGMPTMAVTGVGKDMVRDQRYFSLATRIAAEMGAQIIKTYYVEKGFERIVAGCPVPIVIAGGKKLPEREALEMCWQAIDQGASGVDMGRNIFQSDHPVAMMKAVQAVVHHNETADRAYELYLSEKQ,4.41 ± 0.29 h,3.51 ± 0.53 h,3.91 ± 0.79 h,3.6 ± 0.39 h,3.27 ± 0.084 h,5.1 ± 0.23 h,8.52 ± 0.53 h,3.58 h,4.43 ± 0.74 h,5.44 ± 0.21 h,11 ± 0.47 h,3.03 ± 0.036 h
MQTQVLFEHPLNEKMRTWLRIEFLIQQLTVNLPIVDHAGALHFFRNVSELLDVFERGEVRTELLKELDRQQRKLQTWIGVPGVDQSRIEALIQQLKAAGSVLISAPRIGQFLREDRLIALVRQRLSIPGGCCSFDLPTLHIWLHLPQAQRDSQVETWIASLNPLTQALTMVLDLIRQSAPFRKQTSLNGFYQDNGGDADLLRLNLSLDSQLYPQISGHKSRFAIRFMPLDTENGQVPERLDFELACC,6.32 ± 0.19 h,6.18 ± 0.41 h,5.0717 ± 0.004 h,4.94 ± 0.2 h,2.66 ± 0.025 h,6.55 ± 0.5 h,–,4.87 ± 1.7 h,11.4 ± 6.5 h,5.66 ± 0.3 h,12.3 ± 1.5 h,6.06 ± 1.5 h
MGDSILSQAEIDALLNGDSEVKDEPTASVSGESDIRPYDPNTQRRVVRERLQALEIINERFARHFRMGLFNLLRRSPDITVGAIRIQPYHEFARNLPVPTNLNLIHLKPLRGTGLVVFSPSLVFIAVDNLFGGDGRFPTKVEGREFTHTEQRVINRMLKLALEGYSDAWKAINPLEVEYVRSEMQVKFTNITTSPNDIVVNTPFHVEIGNLTGEFNICLPFSMIEPLRELLVNPPLENSRNEDQNWRDNLVRQVQHSQLELVANFADISLRLSQILKLNPGDVLPIEKPDRIIAHVDGVPVLTSQYGTLNGQYALRIEHLINPILNSLNEEQPK,4.44 ± 0.11 h,–,–,–,2.17 ± 0.39 h,3.96 ± 0.9 h,6.79 ± 0.98 h,–,–,–,–,–
MMPEIGNGLLCLALGIALLLSVYPLWGVARGDARMMASSRLFAWLLFMSVAGAFLVLVNAFVVNDFTVTYVASNSNTQLPVWYRVAATWGAHEGSLLLWVLLMSGWTFAVAIFSQRIPLDIVARVLAIMGMVSVGFLLFILFTSNPFSRTLPNFPIEGRDLNPLLQDPGLIFHPPLLYMGYVGFSVAFAFAIASLLSGRLDSTYARFTRPWTLAAWIFLTLGIVLGSAWAYYELGWGGWWFWDPVENASFMPWLVGTALMHSLAVTEQRASFKAWTLLLAISAFSLCLLGTFLVRSGVLVSVHAFASDPARGMFILAFMVLVIGGSLLLFAARGHKVRSRVNNALWSRESLLLANNVLLVAAMLVVLLGTLLPLVHKQLGLGSISIGEPFFNTMFTWLMVPFALLLGVGPLVRWGRDRPRKIRNLLIIAFISTLVLSLLLPWLFESKVVAMTVLGLAMACWIAVLAIAEAALRISRGTKTTFSYWGMVAAHLGLAVTIVGIAFSQNYSVERDVRMKSGDSVDIHEYRFTFRDVKEVTGPNWRGGVATIGVTRDGKPETVLYAEKRYYNTAGSMMTEAAIDGGITRDLYAALGEELENGAWAVRLYYKPFVRWIWAGGLMMALGGLLCLFDPRYRKRVSPQKTAPEAV,–,–,6.56 h,4.59 h,–,> 8 h,> 16 h,–,–,6.24 h,9.96 h,–
MFDVLMYLFETYIHTEAELRVDQDKLEQDLTDAGFEREDIYNALLWLEKLADYQEGLAEPMQLASDPLSMRIYTPEECERLDASCRGFLLFLEQIQVLNLETREMVIERVLALDNAEFELDDLKWVILMVLFNIPGCENAYQQMEELLFEVNEGMLH [P0A828],5.9529 ± 0.00025 h,0.182 h,0.569 h,0.365 h,–,–,0.0972 h,1.05 h,–,–,–,–
